From patent US7179464

Columns and labels:
[1] = target: soluble human IL-5R α (shIL-5R α) (human) (UniProt Q01344); experiment: discussion of the ELISA results; assay not given
[2] = target: soluble human IL-5R α (shIL-5R α) (human) (UniProt Q01344); experiment: ELISA method 2: purified antibody on plate-coated shIL-5R α, anti-human IgG detection

Sequence of soluble human IL-5R α (shIL-5R α) (human) (Q01344 other isoform, or with tags, fused parts or gaps limits assumed, form in doubt): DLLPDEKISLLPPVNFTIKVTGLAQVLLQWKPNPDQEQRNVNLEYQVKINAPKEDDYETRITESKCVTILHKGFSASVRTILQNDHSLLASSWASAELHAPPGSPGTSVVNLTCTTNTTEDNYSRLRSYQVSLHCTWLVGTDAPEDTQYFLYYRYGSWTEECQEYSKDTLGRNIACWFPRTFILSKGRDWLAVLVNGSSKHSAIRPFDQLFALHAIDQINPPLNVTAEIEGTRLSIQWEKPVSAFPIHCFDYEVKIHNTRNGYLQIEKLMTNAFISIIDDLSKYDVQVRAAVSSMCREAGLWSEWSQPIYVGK

activity relative to KM1259 (fold of KM1259) [1]: 0.5
reactivity relative to KM1399 (fold of KM1399) [2]: 0.5
B1: anti-human IL-5R α chain human CDR-grafted antibody KM8397 (antibody, human IgG1, V domains shown)
VH: EVQLVQSGAEVKKPGASVKVSCKASGYTFTSYVIHWVRQAPGQGLEWMGYINPYNDGTKYNERFKGRVTITADTSTSTAYMELSSLRSEDTAVYYCAREGIRYYGLLGDYWGQGTLVTVSS
VL: DIQMTQSPSSLSASVGDRVTITCGTSEDIINYLNWYQQKPGKAPKLLIYHTSRLQSGVPSRFSGSGSGTDFTLTISSLQPEDFATYYCQQGYTLPYTFGQGTKVEIK
